Values joined by “and” are separate entries in the source; they are usually repeats but may differ in a detail not shown here. Equal values may be shown once. Blank lines part the entries; values can stand above or below the molecule they belong to.
What was measured:
[1] = target: His-tagged human NPM3 (human) (UniProt O75607); assay: native gel or EMSA
[2] = target: His-tagged human NPM3 (human) (UniProt O75607); assay: native MS
His-tagged human NPM1 = His-tagged human NPM1 (human, UniProt P06748 1-294); assay: native gel or EMSA
His-tagged human NPM1, sequence (P06748 whole entry): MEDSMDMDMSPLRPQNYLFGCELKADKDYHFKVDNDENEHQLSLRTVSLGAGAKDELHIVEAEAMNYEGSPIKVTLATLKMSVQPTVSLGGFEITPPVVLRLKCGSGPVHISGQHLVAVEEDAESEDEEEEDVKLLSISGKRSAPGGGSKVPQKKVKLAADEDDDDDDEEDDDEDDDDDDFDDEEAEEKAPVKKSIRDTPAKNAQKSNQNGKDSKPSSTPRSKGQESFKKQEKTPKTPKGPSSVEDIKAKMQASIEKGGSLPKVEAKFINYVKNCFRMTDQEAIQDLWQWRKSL

cross-linking = target: the molecule itself; assay: cross-linking

stoichiometry N [1]: 2 | stoichiometry N [2]: 2
Molecule: His-tagged human NPM3 (from UniProt O75607 1-178) (natural protein)

stoichiometry N (His-tagged human NPM1): 4 NPM1 per NPM3 (NPM1:NPM3 4:1)
B1: His-tagged human NPM3 (natural protein)
chain: MAAGTAAALAFLSQESRTRAGGVGGLRVPAPVTMDSFFFGCELSGHTRSFTFKVEEEDDAEHVLALTMLCLTEGAKDECNVVEVVARNHDHQEIAVPVANLKLSCQPMLSLDDFQLQPPVTFRLKSGSGPVRITGRHQIVTMSNDVSEEESEEEEEDSDEEEVELCPILPAKKQGGRP

B2: His-tagged human NPM2 (natural protein)
chain: MNLSSASSTEEKAVTTVLWGCELSQERRTWTFRPQLEGKQSCRLLLHTICLGEKAKEEMHRVEILPPANQEDKKMQPVTIASLQASVLPMVSMVGVQLSPPVTFQLRAGSGPVFLSGQERYEASDLTWEEEEEEEGEEEEEEEEDDEDEDADISLEEQSPVKQVKRLVPQKQASVAKKKKLEKEEEEIRASVRDKSPVKKAKATARAKKPGFKK
stoichiometry N (cross-linking): 5 and 10
